Here are results for 1 molecule from paper PMC6175958, “Formation of the β-barrel assembly machinery complex in lipid bilayers as seen by solid-state NMR” (Nature Communications, 2018).

The assay deals with T1, BamCDE complex (E. coli, UniProt P0A903 25-344; P0AC02 20-245; P0A937 20-113).
T1 construct: BamC, lipoprotein of the E. coli BAM complex; BamD, lipoprotein of the E. coli BAM complex; BamE, lipoprotein of the E. coli BAM complex; Unlabelled; also called BamCDE sub-complex; BamCDE subcomplex; copies: + +
The experiment in a line: SEC; equimolar combination of the detergent solubilized proteins, mild rotation 1 h at 4 °C, then gel filtration on HiLoad 26/600 Superdex 200 pg. The conditions noted are these: both partners purified. Background: Size exclusion chromatography separates by hydrodynamic size, large species first.

B1: BamAP4P5 (D264–W810) (domain or fragment)
chain: not shown
notes: BamA of E. coli, POTRA domains P4 and P5 plus the transmembrane β-barrel, residues D264–W810 (547 residues); Isotope labelled (AVLTI 13C/15N, or 13C-Ile, 13C-Phe and 15N-Gly) for the ssNMR samples; also called BamP4P5
B1: the binding result is “binds”.
